Experiment: yeast display, Sf9 membrane polyspecificity reagent, FACS + sequencing; frameworks hold sequencing errors
Outline: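 After 36–48 hours of galactose induction, yeast (Saccharomyces cerevisiae BJ5465) displaying a synthetic nanobody library were stained at 4 °C for 1 hour with 10% biotinylated, detergent-solubilized Sf9 membrane reagent. Streptavidin microbeads enriched the stained cells before FACS sorting into low and high (top ~1%) gates on anti-HA and streptavidin fluorescence. Each clone's polyreactivity label reflects its gate of origin.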

Row | Sequence | polyreactivity (PSR sort gate)
1 | QVQLVESGGGLVQAGGSLRLICAASGSIFVGNAMCWYSQATGKERELVATITSGGSTYYADSVKGRFTISRDNAMNTVYLQMNSLKPEDTSVYNCAADYEFSKFDYVYWGQGTQVTVSS | low polyreactivity
2 | QVQLVESGGGLVQAGGSLRLSCAASGRTFSVYTMGWYRQAPGKERELVAVISSGGGTDYADSVKGRFTISRDNAKNTVYLQMNSLKPEDTAVYYCAAELRYYLYDVVYIVTYDYWGQGTQVTVSS | low polyreactivity
3 | QVQLVESGGGLVQAGGSLRLSCAASGFIFYRYAMGWYRQAPGKERELVARISWNGGITYYADSVKGRFTISRDNAKNTVYLQMNILKPEDTAVYYCNKPDPYGLYTYEYWGQGTQVTVSS | low polyreactivity
4 | QVQLVESGGGLVQAGGSLRLTCAASGTIFYYNAMRWYRQAPGKERELVAAISWSGSRTYYADSVKGRFTISRDNAKITVYLQMNSLKPEDTAVYYCAAVVRFPFTYDYWGQGTQVTVSS | high polyreactivity
5 | QVQLVESGGGLVQAGGSLRISCAAYGRIFGYYALGWYRQAPGKERELVAAITSGGSTNYADSVKGRFTISRDNAKNTVYLQMNSLKPEDTAVYYCAARSWYFSWEMYYWGQGTQVTVSS | high polyreactivity
6 | QVQLVESGGGLVQAGGSLRLSCAASGSTFSKYAMGWYRPAPGKERELVAAISSRGGSTYYADSVKGRFTISRDNAKNTVYLQMNSLKPEDTAVYYCATYYVYKLYYWGQGTQVTVSS | high polyreactivity
7 | QVQLVESGGGLVQAGGSLRLSCAASGRTFWRNAMGWYRQAPGKERELVAVISVRGSSTSYADSVKGRFTISRDNAKNTVYLQMNSLKPEDTAVYYCNKASRTYGTGYDYWGQGTQVTVSS | high polyreactivity
8 | QVQLVESGGGLVQAGGSLRLSCAASGRTFISYAMGWYRQAPGKESELVAAISSSGGSTYYADSVKGRFTISRDNAKNTVYLQMNSLKPEDTEVYYCNAAKVRRDPAWRLLDYWGQGTQVTVSS | low polyreactivity
9 | QVQLVESGGGLVQAGGSLRLSCAASGSIVGSYAMGWYRQAPGKERELVAGIRSGGSTYYADSVKGRFTISRDNAKNTVYLQMNSLKPEDTAVYYCAGHEEYWGHGTQVTVSS | low polyreactivity
10 | QVQLVESGGGLVQAGGSLRLSCAASGSTIYTYVMGWYIQAPGKERELVAAISWSGSSTYYADSVKGRCTISRDNAKNTVYLQINSLKPEDTAVYYCNAKYRRGWWGVEYGYWGQGTQVTVSS | low polyreactivity
11 | QVQLVESGGGLVQAGGSLRLSCAASGIIFSYNAMGWYRQAPGKERELVAAINSSGGSTNYADSVKGRFTISRDNAKNTVYLQMNSLKPEDTAVYYCAARDATYYGVWRYYGIDDYWGQGTQVTVSS | low polyreactivity
12 | QVQLVESGGGLVQAGGSLRLSCAASGSIFSKNAIGWYRQAPGKERELVDAISASGASTYYADSVKGRFTISRDNEKNTVYLQMNSLKPEDTAVYYCNADVSGVSSYGRSYEFYYWGQGTQVTVSS | low polyreactivity
13 | QVQLVESGGGLVQAGGRLRIICAASGYIFRFNAMGWYRQAPGKERELVAVITKSGGSTYYADSVKGRFTISRDNAKNTVYLQMNRLKPEDSAVYYCNADRFYIDYTNTYDSIRDYWGQGTQVTVSS | low polyreactivity
14 | QVQLVESGGGVVQAGGSLRLSCAASGRTFGSNAMGWYRQAPGKERELVAGITTSGGSTNYADSVKGRFTISRDNAKNTVYLQMNSLKPEETAVYFCAVANYGIGYPHYIFDYWGQGTQVTVSS | low polyreactivity
15 | QVQLVESGGGLVQAVGSLRLSCAASGRIIVRNAMGWYRQAPGKERELVAAISRSGGSTYYADSVKGRFTLSRDNAKNTVYLQMNSLIPEYTAVYYCAADYPITYTSKFNYWGHGTQVTVSS | high polyreactivity
16 | QVQLVESGVGLVQAGGSLRLSCAASGNTFLPYAMGWYRQAPGKERELVAANSWSGGSTYYADSVKGRFTISRDNAKNTVYLQMNSLKPEETAVYYSARRRIGTPAYYYWGHGTQVTVSS | high polyreactivity
17 | QVQLVESGGGLVQAGGSLRLSCAASGRIFDRYVMGWYRQAPGKERELVAAISQSGGGTYYADSVKGRFTISRDNAKNTVYLQMNSLNPEDTAVYYCAARGTGYHGYGYWGQGSQVTVSS | high polyreactivity
18 | QVQLLESGGGLVQAGGSLRLSCAASGYTFRFNAMGWNRQAPGKETEFVAAIDFGGAGTYYADSVKGRFTISRDNAKNTVYLQMNSLKPEDTAVYYCNARDGVTTEFDYWGQVTQVTVSS | low polyreactivity
19 | EVQLVESRGGLVQAGGSLRLSCAASGSILVGYAMGWYRQAPGKERELVAAISFSGGSTYYADSVKGRFTISRDNAKNTVFLQLNSLKPEDTAVYYCASKRRVWIFYSSSDDYWGQGTQVTVSS | low polyreactivity
20 | QVQLVESGGGLVQAGGSLRLSCAASGSTFFKYGMGWYRQAPGKERELVATISSRGGNTSYADSVKGRFTISRDNAKNTVYLLMNSLKPEVTAVYLCNAKLVYVGDTTTWGQGTQVTVSS | low polyreactivity
21 | QVQLVESGGGLVQAGGSLRLSWAASGHTFHGYDMGWYRQEPGKERDLVAAITSTGGSTHYSDSVKGRFTISRDNAKNTVYLQMNSLKPEDTAVFFCANRSYGLTRAYSAGNFWGQGTQVTVSS | low polyreactivity
22 | QVQLVESGGGLVQAGGSLRLSCGASGRTFGRYAMGWYRQAPGKERELVDAITWSGGSTYYADSVKGRFTISRDNAKNTVYLQMNSLKPEDTAVYYCAASGYPIYHDDYWGQGTQVTVSS | low polyreactivity

Row | Sequence | polyreactivity (PSR sort gate)
23 | QVQLVESGGGLVQAGGSLRLSCAASGRIFYGYAMGWYRQAPGKERELVAAISRGGTRTFYADSVKGRFTISRDNAKNTVYLQMNSLKPEDTAVYYCAADPGPHRYSYDYWGQGTQVTVSS | high polyreactivity
24 | QVQLVESGGGLVQAGGSLRLSCAASGLTFYSNAMGWYRQAPGKERELVARISTGGSTYADSVKGRFTISRDNAKNTVYLQMNSLKPVDTAVYYCAVDGWDDTYFRQDMDYWGQGTQVTVSS | low polyreactivity
25 | QVHLVESGGGLVQAGGSLRLSCAASGFIFPNNAMGWYRQAPGKERELVARISYGGGDTHYADSVKGRFTISRDNAKNTVYLQMNSLKPEDTAVSYCAVKDGQDDYWGQGTQVTVSS | low polyreactivity
26 | QVQLVESGGGLVQAGGSLRLSCAASGSTFRQNTMGWYRQAPGKEREFVAAINYSGGSTNYADSVKGRFTISRDNAKNTVYLQMNSLKPEDTAVYYCAVRQYYYKRMGYWGQGTQVTVSS | high polyreactivity
27 | QVQLVESGGGLVQAGGSLRLSCAASGSTVYYNAMGWYRQAPGKERELVADITTSGDSTYYADSVKGRFTISRDNAKNTVYFQMNSLKPEDTAVYYCNAGVVGDYPYWGLMDYWGQGTQVTVSS | high polyreactivity
28 | QVQLVESGGGLVQAGGSLRLSCAASGFIIIGNAMVWYRQAPGKERELVAAISRRGGSTYYADSVKGRFTISRDNAKNTVYLQMNSLKPEDTAVYYCATDPGARVHYPTGDYWGQGTQVTLSS | high polyreactivity
29 | QVQLVESGGGLVQAGGSLRLSCAASGRIFRGYVMGWYRQAPGKERELVAVITSGGRTYYADSVKGRFTISRDNAKNTVYLQMNSHKPEDTAVYYCATYPRYKPYYYWGQGTQVTVSS | low polyreactivity
30 | QVQLVESRGGLVQEVGSLRLSCAASGRIFYRYYMGWYRQAPGKERELVASITRSGITHYADSVKGRFTISRDNATNTVYLQMNSLKPEDTAVYYCAVDLLRRGFPTVVTTYDYWGQGTQVTVSS | high polyreactivity
31 | QVQLVESGGGLVQAGGSLRLSCAASGRIFYGNAMGWYRQAPGKESELVASITSSGSTKYADSVKGRFTISRDNAKNTVYLQMYSLKPVDTAVYYCAASSTKRYDTYAGYDYWGQGTQVTVSS | low polyreactivity
32 | QVQLVESGGGLFQAGGSLRLSCAASGGIFFYYAMGGYRQAPGKERELVAAIRTNGGTTYYADSVKGRFTISRDNAKNTVYLQRNRLKTEDTAVYYCPAQPGGYYVRGEFDYWGQGTQVTLSS | low polyreactivity
33 | QVQLVESGGGLVQAGGSLRLSCAASGSIFRYYAMGWYRQAPGKEREFVAAITRSGGSTTYADSVKGRFTISRDNAKNTVYLQMNSLKPEDTAVYYCNAKSSRFQVFNYGYWGQGTQVTVSS | high polyreactivity
34 | QVQLVESGGGLVQAGGSLRLSCAASGFIGWYRQAPGKERELVAAISWRGGRTYYADSVKGRFTISRDNAKNTVYLQMNSLKPEDTAVYYCNAVGNVWGYDSWGQGTQVTVSS | high polyreactivity
35 | QVQLVESGGGLVQAGGSLLLSCAASGFTFRYYAMGWYRQAPGTERELVAAISSGGNTRYADSVKGRFTISRDNAKITVYLQLNSLKPEDTAVYYCARRPGAPRESYDYWGQGTQVTVSS | high polyreactivity
36 | QVQLVESGGGLVQAGGSLRLSCAASGRTFVVYAMGWYRQAPGKERELVAAITSSGNTYYADSVKGRFTISRDNAKNTVYLQMNSLKPEDTAVYYCAAYSLYGYDYWGQGTQVTVSS | low polyreactivity
37 | QVQLVESGGGLVQAGGSLRLSCAASGSTFGDNAMGWYRQAPGKEREFVAAITTSGTSTYYADSVKGRFTISRDNAKNTVYVQMNSLKPEDTAVYYCAAYSRAAAGFYSSRRDYYWGQGTQVTVSS | low polyreactivity
38 | QVQLVESGGGLVQAGGSLRLSCAASGNIFVPSAMGWYRQEPGKERELVAAINVGGSTNYADSLNGRFTNSRDNPKNTVYLQMNSVKPEDTAVNYFGAVWYFLSLWYDYWGHGTQVTVSS | high polyreactivity
39 | HVQLVESGGGLVQAGGSLRLSCAASGRTFRLYAMGRYRQATGKEMELVARIRWRGGTTYFADSVKGRFTISRDNAKNTVYLQMNRLKPEDTAVYYCAARAYPTWRTYYYCGQGTQVTVSS | high polyreactivity
40 | QVQLVESGGGLVQAGGSLRLSCAASGFIFTDNVMGWYRQAPGKERELVAAISRGGGSTYYADSVKGRFTISRDNAKNTDYLQMNSLKPEDTAVYYCAAPTARSRSERDYWGQGTQVTVSS | high polyreactivity
41 | QVQLVESGGGLVQAGGSLGLSCAASGSIFGYYALGWYRPAPGKERELVAAISWSDGSTYYADSVKGRFTISRDNAKNTVYLQMNSLKPEDTAVYDCAARFTPYITSADGHYDYWGQGTQVTVSS | low polyreactivity
42 | QVQLVESGGGLVQAGGSLRLSCAASGGTFLNYAMGWYRQAPGKECELVAVITNGDSTYYADSVKGRFTISRDNAKNTVYLQMNSLKPEDTAVYYCNADDWGQYNIWYDYWGQGTQVTVSS | low polyreactivity
43 | QVQLVESGGGLVQAGGSLRLSCAASGSIFSWYAMGWYRQAPGKERELVAAISSRGGSTYYADSVKGRFTISRDTAKNTVYLQMYSLKPEDTAVYYCNTTYGYSTYWASGKYDYWGQGTQVTVSS | low polyreactivity
